Data as given in PMC6054393, “Light induces oxidative damage and protein stability in the fungal photoreceptor Vivid” (PLoS ONE, 2018).
Values belong to the molecule of their own block, whether it stands above or below them.

Tests used:
[1] = target: Vivid (VVD) truncated at the N-terminus by 36 residues, with an N-terminal 6xHis tag (Neurospora crassa) (UniProt Q9C3Y6)
[2] = target: the molecule itself; assay: SDS-PAGE and Western blot of the aggregated pellet; purified VVD36 given a 5-min blue-light pulse, kept 24 h at 25°C in standard buffer (10% glycerol, 50 mM HEPES, 150 mM NaCl, 20 mM imidazole, pH 8), centrifuged; pellet run on SDS-PAGE and blotted against the 6xHis tag; with DTT present oligomer formation was limited

- photoadduct mean lifetime of VVD with A. niger catalase at 2.34 uM (optical absorbance) [1]: 1100 s
Molecule: catalase from Aspergillus niger (from UniProt P55303 1-730) (enzyme)

B1: Vivid (VVD) truncated at the N-terminus by 36 residues, with an N-terminal 6xHis tag (domain or fragment, Neurospora crassa, UniProt Q9C3Y6 37-186, looked up)
chain: HTLYAPGGYDIMGYLIQIMNRPNPQVELGPVDTSCALILCDLKQKDTPIVYASEAFLYMTGYSNAEVLGRNCRFLQSPDGMVKPKSTRKYVDSNTINTMRKAIDRNAEVQVEVVNFKKNGQRFVNFLTMIPVRDETGEYRYSMGFQCETE
notes: Vivid (VVD), LOV photoreceptor of Neurospora crassa, wild type, first 36 amino acids deleted (VVD36); The plasmid came from B. R. Crane; The sample carries some self-oxidative damage (oxidised D82, Y87, F92, F159, N161 found in the aggregated pellet); also called VVD36; dark-VVD; not shown: His6, N-terminal, kept
- binding result [2]: binds
